Results: the supplement of paper PMC9170038

Tested on: MS2 coat protein
Test: apparent KD of MS2 coat protein; designed switch direction (-1 OFF switch, 1 ON switch): 1; higher = weaker reporter binding
Procedure, shortened: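 Each step of the titration lasted 0.8–1.5 h at the lowest concentration and 10–20 min at the highest. The protein, SNAP-549-labelled MS2 coat protein, went from 0.7 or 1.5 nM doubling to 3 µM over RNA switches transcribed on Illumina chips by stalled E. coli RNA polymerase. Normalised cluster fluorescence was curve-fitted, and the per-design median over clusters is given as apparent KD.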

[1] = Eterna round: R95, input ligand: FMN 200 uM
[2] = Eterna round: R95, input ligand: microRNA oligo, concentration not stated
[3] = Eterna round: R95, input ligand: none
[4] = input ligand: microRNA oligo, concentration not stated

Row | Sequence | apparent KD of MS2 coat protein [1] | apparent KD of MS2 coat protein [2] | apparent KD of MS2 coat protein [3] | apparent KD of MS2 coat protein (input ligand: FMN 200 uM) | apparent KD of MS2 coat protein [4] | apparent KD of MS2 coat protein (input ligand: none)
1 | AGCGAAAUAAGCAAGGAUAUGUAAUUUGGCACAUGAGGAUCACCCAUGUCAAUCCAUUUUUUUGAACAGAAGGUGCAUUUUUUUU [ak second] (puzzle: Same State 2) | 48.6 nM | 53.5 nM | 45.4 nM |  |  | 
2 | AGCGAACAGUCCUCAAAGGCAACAUGAGGAUCACCCAUGUCAUAGGAUAUGCUAAAAGCUCAGUAGCAGAAGGAUGGAGGACUG [Edatusbe] (Eterna round: R96, puzzle: Same State NG 3) |  |  |  | 19.5 nM | 28.1 nM | 23.5 nM
3 | AGCUAAUACGAAGGAUAUACUGACAUGAGGAUCACCCAUGUCUACAUGAUUUAUUGUGAUCACAUGUAGAAGGUCGUACUAACA [SameState NG2 #23] (Eterna round: R96, puzzle: Same State NG 2) |  |  |  | 26.8 nM | 62.3 nM | 79.8 nM
4 | AGCUAGUACCGAGGAUAUACAUACAUGAGGAUCACCCAUGUAUACAUGAACAAUUGAGACUACAUGUAGAAGGCGGUACUAGCA [JL SSNG2 1.19] (Eterna round: R96, puzzle: Same State NG 2) |  |  |  |  | 37.4 nM | 
5 | AGCUAUUACGAAGGAUAUUGUGACAUGAGGAUCACCCAUGUUUACAUGAUUAAUUGUGAUCACGUCGAGAAGGUUGUACUAACA [SameState NG2 #32] (Eterna round: R96, puzzle: Same State NG 2) |  |  |  | 24.3 nM | 27.3 nM | 30.2 nM
6 | AGCUUCAAACUUUGCUCGUCGCGCCAGCGACAUGAGGAUCACCCAUGUGGGCGCAACCUCGUUAGCCCGAGGGCUCG [Labire] (puzzle: Sensor for hsa-mir-208a) | 27.1 nM | 14 nM | 29 nM |  |  | 
7 | AGGAAGGAGACUGAGGAUAUCGUUGAAAAGACAUGAGGAUCACCCAUGUGUAUAGGAUUGGAGAACGAGAAGGCAGAGGAGUGGA [JR_SS2_Sub044] (puzzle: Same State 2) | 29.2 nM | 33.3 nM | 37.5 nM |  |  | 
8 | AGGAAGGAGACUGAGGAUAUCGUUGAAAGGACAUGAGGAUCACCCAUGUGUAUAGGAUUGGAGAACGAGAAGGCAGAGGAGUGGA [JR_SS2_Sub045] (puzzle: Same State 2) | 36.4 nM | 46.6 nM | 71.2 nM |  |  | 
9 | AGGCUCAGACGAGGAUAUAUGCGAUCACAUGAGGAUCACCCAUGUCUCGAGCUUCGGCUCGAGGCAUAGAAGGUGUCUGAGCCA [SSNG2/4-C1] (Eterna round: R96, puzzle: Same State NG 2) |  |  |  | 31.4 nM | 111 nM | 126 nM
10 | AGGCUCAGACGAGGAUAUGAUCAUGGCGCUUCGGCGCAUACAUGAGGAUCACCCAUGUAAAGUGAUCAGAAGGCGUCUGAGCCA [SSNG2/7-A1] (Eterna round: R96, puzzle: Same State NG 2) |  |  |  | 12.3 nM | 14.5 nM | 14.2 nM
11 | AGUCCACCCUGAGGUGGACAAAAGCAUGUACAUGAGGAUCACCCAUGUCAUGUACAAGCUUUUUGCUCGUCUUAAUA [Mat - hsa-mir-208a - Mod of JL - D42] (puzzle: Sensor for hsa-mir-208a) | 589 nM | 17.9 nM | 734 nM |  |  | 
12 | AGUCCAGAAUAAACUGGACAAAGACAUGUACAUGAGGAUCACCCAUGUCAUGUACAAGUUUUUUGCUCGUCUUAUAA (puzzle: Sensor for hsa-mir-208a) | 39.9 nM | 10.4 nM | 37.2 nM |  |  | 
13 | AGUCCAGCAAGAGCUGGACAAAAGCAUGUACAUGAGGAUCACCCAUGUUCAUGUACAAGCUUUUUGCUCGUCUUAAA [Mat - hsa-mir-208a - Mod of JL - 57] (puzzle: Sensor for hsa-mir-208a) | 413 nM | 16.5 nM | 659 nM |  |  | 
14 | AGUCCAGCAUGAGCUGGACAAAAGCAUGUACAUGAGGAUCACCCAUGUUCAUGUACAAGCUUUUUGCAAGUCAAAAU [Mat - hsa-mir-208a - Mod of JL - 81] (puzzle: Sensor for hsa-mir-208a) | 614 nM | 17.8 nM | 595 nM |  |  | 
15 | AGUCCAGCCUGAGCUGGACAAAAGCAUGUACAUGAGGAUCACCCAUGUCAUGUACAAGCUUUUUGCUCGUCUUAAAG [Mat - hsa-mir-208a - Mod of JL - D23] (puzzle: Sensor for hsa-mir-208a) | 231 nM | 18 nM | 312 nM |  |  | 
16 | AGUCCAGCCUGAGCUGGACAAAAGCAUGUACAUGAGGAUCACCCAUGUCAUGUACAAGCUUUUUGCUCGUCUUAAUA [JL zipper 49] (Eterna round: R96, puzzle: Sensor for hsa-mir-208a) |  |  |  | 600 nM | 16.2 nM | 471 nM

Row | Sequence | apparent KD of MS2 coat protein [1] | apparent KD of MS2 coat protein [2] | apparent KD of MS2 coat protein [3] | apparent KD of MS2 coat protein (input ligand: FMN 200 uM) | apparent KD of MS2 coat protein [4] | apparent KD of MS2 coat protein (input ligand: none)
17 | AGUCCAGCCUGAGCUGGACAAAAGCAUGUACAUGAGGAUCACCCAUGUCAUGUACAAGCUUUUUGCUCGUCUUAAUA [Mat - hsa-mir-208a - Mod of JL - D44] (puzzle: Sensor for hsa-mir-208a) | 544 nM | 15.3 nM | 634 nM |  |  | 
18 | AGUCCAGCCUGAGCUGGACAAAAGCAUGUACAUGAGGAUCACCCAUGUCAUGUACAAGCUUUUUGCUCGUUUUAAUA [Zipper 49 - 14] (puzzle: Sensor for hsa-mir-208a) | 509 nM | 14 nM | 679 nM |  |  | 
19 | AGUCCAGCCUGAGCUGGACAAAAGCAUGUACAUGAGGAUCACCCAUGUCAUGUAUAAGCUUUUUGCUCGUCUUAAAA [Zipper 46 - 10] (puzzle: Sensor for hsa-mir-208a) | 18.9 nM | 9.63 nM | 20.1 nM |  |  | 
20 | AGUCCAGCCUGAGCUGGACAAAAGCAUGUACAUGAGGAUCACCCAUGUUCAUGUACAAGCUUUUUGCUCGUCGGAAU [Mat - hsa-mir-208a - Mod of JL - 49] (Eterna round: R96, puzzle: Sensor for hsa-mir-208a) |  |  |  | 668 nM | 16.6 nM | 654 nM
21 | AGUCCAGCCUGAGCUGGACAAAAGCAUGUACAUGAGGAUCACCCAUGUUCAUGUACAAGCUUUUUGCUCGUCGGAAU [Mat - hsa-mir-208a - Mod of JL - 49] (puzzle: Sensor for hsa-mir-208a) | 762 nM | 16.5 nM | 905 nM |  |  | 
22 | AGUCCAGCCUGAGCUGGACAAAAGCAUGUACAUGAGGAUCACCCAUGUUCAUGUACAAGCUUUUUGCUCGUCUAAAG [Mat - hsa-mir-208a - Mod of JL - 66] (puzzle: Sensor for hsa-mir-208a) | 506 nM | 16.6 nM | 880 nM |  |  | 
23 | AGUCCAGCCUGAGCUGGACAAAAGCAUGUACAUGAGGAUCACCCAUGUUCAUGUACAAGCUUUUUGCUCGUCUGAAU [Mat - hsa-mir-208a - Mod of JL - 47] (puzzle: Sensor for hsa-mir-208a) | 709 nM | 19.9 nM | 874 nM |  |  | 
24 | AGUCCAGCCUGAGCUGGACAAAAGCAUGUACAUGAGGAUCACCCAUGUUCAUGUACAAGCUUUUUGCUCGUCUUGCG [salish99_208a_r3_106x] (puzzle: Sensor for hsa-mir-208a) | 641 nM | 17.3 nM | 867 nM |  |  | 
25 | AGUCCAGCCUGAGCUGGACAAAAGCAUGUACAUGAGGAUCACCCAUGUUCGUGUACAAGCUUUUUGCUCGUCUUAAA [Zipper 52 - 5] (puzzle: Sensor for hsa-mir-208a) | 518 nM | 13.5 nM | 725 nM |  |  | 
26 | AGUCCAGCCUGAGCUGGACAAGAGCAUGUACAUGAGGAUCACCCAUGUCAUGUACAAGCUUUUUGCUCGUCUUAAAA [Zipper 46 - 2] (puzzle: Sensor for hsa-mir-208a) | 493 nM | 14.3 nM | 478 nM |  |  | 
27 | AUAAAACAUGAGGAUCACCCAUGUCAACAAAGUCGAGGAUAUGGGCAAAGAAAAUAAGAACCAGAAGGCGAAUAAU [salish99_ss1_r3_056] (Eterna round: R96, puzzle: Same State 1) |  |  |  |  | 245 nM | 
28 | AUAAAACAUGAGGAUCACCCAUGUCAACAAAGUCGAGGAUAUGGGCAAAGAAAAUAAGAACCAGAAGGCGAAUAAU [salish99_ss1_r3_056] (puzzle: Same State 1) | 36.2 nM | 319 nM | 489 nM |  |  | 
29 | AUAAAACAUGAGGAUCACCCAUGUCAACAAAGUCGAGGAUAUGGGCAAAUAAAAUAAGAACCAGAAGGCGAAUAAG [salish99_SS1_r3_004] (puzzle: Same State 1) | 30.7 nM | 88 nM | 266 nM |  |  | 
30 | AUAAAACAUGAGGAUCACCCAUGUCAACAAAGUCGAGGAUAUGGGCAAAUAAUAUAAGAACCAGAAGGCGAAUAAU [salish99_ss1_r3_022] (puzzle: Same State 1) | 36.6 nM | 207 nM | 191 nM |  |  | 
31 | AUAAGUCCGAUGCUCGUCUCUCCGUACAAACAUGAGGAUCACCCAUGUGAUCGGGCAGUAGCCCGAUCAGUAUGGCC [Raedre] (puzzle: Sensor for hsa-mir-208a) | 51.5 nM | 23.9 nM | 56.4 nM |  |  | 
32 | AUACAUGAGGAUCACCCAUGUAAUUAAUUAAUUAAUAAGAUCAAGGAUAUCAGCUCGAAUAGAGCUGAGAAGGUGAUCACAUGU [SSNG3/21-D1] (Eterna round: R96, puzzle: Same State NG 3) |  |  |  |  | 177 nM | 
